Test results from US9862748B2, “Peptide compounds and methods of production and use thereof” (priority 2012, dated 2018).
Square brackets hold non-standard residues; d marks the D form. Peptide text beside a SMILES is read from it. AEEA = NCCOCCOCC(=O)O

Key:
Salmonella typhimurium = assay: In vitro bactericidal assay; assay type: cell-based
Description: (§1) In vitro bactericidal activity: The three peptide compounds BCC01-5RMP (SEQ ID NO: 21), BCC02-5RMP (SEQ ID NO: 22), and BCC03-5RMP (SEQ ID NO: 23) were assayed for in vitro bactericidal activity against Pseudomonas aeruginosa, Escherichia coli, Salmonella typhimurium, and Acinetobacter baumannii. The starting inoculum for all experiments was 1×10^6 colony forming units (CFU)/ml. The CFU remaining at the end of 60 to 180 minute incubation was determined, and the data plotted as a log reduction in CFU/ml.

RAW264.7 cells = assay: LPS neutralization: TNF-α release from LPS-stimulated RAW264.7 cells; assay type: cell-based, mouse
Description: (§2) The well-characterized response of RAW264.7 macrophage cells was used to produce tumor necrosis-factor-alpha (TNF-α) in response to LPS to determine whether the peptides could dampen the release of this cytokine. […] Importantly, pre-treatment (3 hours prior to LPS addition) as well as post-treatment of the RAW264.7 cells (3 hours post LPS addition) with peptide dampened the cytokine release. […] The finding that the novel peptides bind and neutralize the effect of Pseudomonas LPS is of critical importance since this ensures that the novel therapeutic peptide compounds described herein will not only kill the bacteria, but will also neutralize the LPS endotoxin released by the bacteria which plays such an important role in the rapid progression of sepsis.
(§3) BCC01-5RMP (SEQ ID NO: 21), BCC02-5RMP (SEQ ID NO: 22), and BCC03-5RMP (SEQ ID NO: 23) were tested for their ability to bind lipopolysaccharide (LPS) using the limulus amebocyte lysate method (LAL). […] There was no statistical difference in their ability to bind LPS using the LAL technique. The ability of the peptides to neutralize LPS was assessed by determining their ability to attenuate the release of tumor necrosis factor-alpha (TNF-α) from LPS-stimulated RAW264.7 cells (a mouse macrophage cell line). […] No significant differences were observed between the three peptides to neutralize LPS as measured by cytokine release.

Pseudomonas LPS = assay: LPS binding, Limulus Amebocyte Lysate (LAL) assay
Description: as §2, §3

[1] = test system: Acinetobacter baumannii ATCC® BAA-747™; assay type: cell-based; settings: starting inoculum 1×10^6 CFU/ml; 60 to 180 minute incubation
Description: as §1
For FIGS. 10-13, in vitro bactericidal assays were performed using a starting inoculum of 1×10^6 CFU/ml of the bacterial suspension. The CFU remaining at the end of the 60-180 minute incubation was determined, and the data was plotted as log reduction in CFU/ml.
In particular, each of the test peptides (CAP37 peptides 120-146WR, 120-146WH, and 95-122 (SEQ ID NOs: 30, 31, and 26, respectively)) was used at 25, 12.5, 6.25, and 3.12 μM. Gentamicin was used at 4 μg/ml. 1×10^6/ml Acinetobacter baumannii ATCC® BAA-747™ or Pseudomonas aeruginosa ATCC® 27853™ (American Type Culture Collection, Manassas, Va.) were incubated with the peptides, negative buffer control (tryptone saline), and positive control gentamicin at pH 5.5 or 7.2. A 60 minute incubation was used for Acinetobacter baumannii ATCC® BAA-747™, while a 180 minute incubation was used for Pseudomonas aeruginosa ATCC® 27853™. 50 μl aliquots were plated out on agar plates and incubated overnight. Colony forming units were counted after overnight incubation and CFU/ml calculated.

[2] = test system: mouse cornea (corneal epithelial abrasion); assay: In vivo model of corneal wound healing
Description: The in vivo model of wound healing was carried out using a disposable biopsy punch (2 mm, Miltex, York, Pa.) to demarcate the mouse cornea and a 0.5 mm burr using the AlgerBrush II (The Alger Company, Inc., Lago Vista, Tex.) to remove the corneal epithelium.
Mice were anesthetized using ketamine (100 mg/kg; Bionichepharma, LLC., St. Lake Forrest, Ill.) and xylazine ([…]; Rompun; Bayer Corp., Shawnee Mission, Kans.), and the right cornea was wounded as follows. A disposable biopsy punch (2 mm, Miltex, York, Pa.) was used to demarcate the mouse cornea. The corneal epithelium was carefully removed within the 2 mm demarcated area with a 0.5 mm burr using the AlgerBrush II (The Alger Company, Inc., Lago Vista, Tex.). The corneal abrasions were treated at 0 and 16 hours with HB-EGF (250 ng/ml), rCAP37 (250 ng/ml), or vehicle control (0.9% sodium chloride, pH 5.5, Baxter, Deerfield, Ill.). Corneal abrasions were visualized using sterile fluorescein sodium ophthalmic strips USP (FLUORETS®, Chauvin Laboratory, Aubenas, France) dampened with sterile PBS. Images were taken at 0, 16, 24, and 48 hours immediately following fluorescein staining using a surgical microscope equipped with a camera (Carl Zeiss OPMI VISU 140, Carl Zeiss Surgical, Inc., Oberkochen, Germany). The areas of the open wound were quantitated using ImageJ software (US National Institutes of Health), and the results were reported as the percentage of wound closure.
Whole mouse eyes were collected for histology at 0, 6, 16, 24, and 48 hours post wounding and were immediately placed in Prefer fixative (Anatech LTD., Battle Creek, Mich.) for 20 minutes before being transferred to 70% ethanol. Tissues were paraffin-embedded and cut at a thickness of 5 μm, mounted on SUPERFROSTPLUS® slides (Statlab Medical Products, Lewisville, Tex.), and subsequently deparaffinized, rehydrated, and washed in deionized water. Sections were stained with hematoxylin (Leica Microsystems, Buffalo Grove, Ill.) and rinsed twice in deionized water before being washed in Blue Buffer (Leica Microsystems). The sections were finally washed in deionized water and 95% ethanol prior to being counterstained with eosin (Leica Microsystems). Sections were dehydrated in ethanol and cleared in xylene.

HCEC monolayers = assay: In vitro scratch assay of wound closure; assay type: cell-based, human
Description: An in vitro scratch assay was used in order to determine the ability of rCAP37 to facilitate corneal wound healing. Human corneal epithelial cells were cultured as described above until they reached a confluent monolayer. Each monolayer was scratched using a 10 μl pipette tip to create two perpendicular lines. Monolayers were treated with heparin binding-epidermal growth factor (HB-EGF, 250 ng/ml; Becton Dickinson), rCAP37 (25-2000 ng/ml), or basal KSFM (Gibco). Wound closure was monitored at 0, 18, 24, and 48 hours utilizing a camera-equipped inverted microscope (TE2000-E; Nikon, Melville, N.Y.). Time-lapse images of in vitro wound closure were obtained using a camera-equipped inverted microscope (TE2000-E; Nikon) from 0-18 hours. HCEC monolayers were treated with HB-EGF, rCAP37, and basal KSFM as described above. The width of each scratch was quantitated using ImageJ software (US National Institutes of Health, Bethesda, Md.). Results are presented as the percentage of wound closure.

[3] = test system: human corneal epithelial cell (HCEC); assay: HCEC chemotaxis, modified Boyden chemotaxis chamber assay; assay type: cell-based; settings: 120-146QH 10^−4 to 10^−10 M; 120-146QR 10^−6 and 10^−8 M; HB-EGF 50 ng/ml; rCAP37 250 ng/ml; 3 hours
Description: The effect of buffer control (0.1% BSA in Gey's buffer), heparin binding-epidermal growth factor (HB-EGF, 50 ng/ml), recombinant CAP37 (rCAP37, 250 ng/ml), 120-146QH ([…], 10^−10M, 10^−8M, 10^−4M, and 10^−4M,) and 120-146QR (10^−10M, 10^−8M, 10^−6M, and 10^−4M) on HCEC chemotaxis was determined by the modified Boyden chemotaxis chamber method. HCEC chemotaxis was measured in response to HB-EGF, rCAP37, and peptides 120-146QH (SEQ ID NO: 29) and 120-146QR (SEQ ID NO: 28) after incubation for 3 hours at 37° C. Chemotaxis is expressed as a percent migration. The buffer control (no chemoattractant) is arbitrarily assigned the value of 100% migration. Data are expressed as means±SEM and are calculated from 6 observations for each test point. **P<0.01 by Wilcoxon signed-rank test as compared to controls.
Chemotaxis assays were performed using the modified Boyden chemotaxis chamber assay. Peptide 120-146QH was used at 10^−4M, 10^−6M, 10^−8 M, 10^−10 M, and 10^−12M, and peptide 120-146QR was used at 10^−4M, 10^−6M, 10^−8 M, and 10^−10 M.

[4] = 250 ng/ml topical at 0 and 16 hours

Question: Which “activity against Salmonella typhimurium” value (Salmonella typhimurium) does the source give for CC[C@H](C)[C@H](NC(=O)[C@H](CC(C)C)NC(=O)[C@H](C)NC(=O)CNC(=O)CNC(=O)[C@H](CS)NC(=O)[C@H](Cc1ccccc1)NC(=O)[C@H](Cc1c[nH]cn1)NC(=O)[C@H](CCCNC(=N)N)NC(=O)CNC(=O)[C@H](CCC(N)=O)NC(=O)[C@H](CC(N)=O)NC(=O)[C@H](CCCNC(=N)N)NC(=O)[C@H](CCCNC(=N)N)NC(=O)[C@H](CCCNC(=N)N)NC(=O)[C@H](CCCNC(=N)N)NC(=O)COCCOCCNC(=O)COCCOCCN)C(=O)N[C@@H](Cc1c[nH]cn1)C(=O)N[C@@H](C)C(=O)N[C@@H](CCCNC(=N)N)C(=O)N[C@@H](Cc1ccccc1)C(=O)N[C@H](C(=O)N[C@@H](CCSC)C(=O)N[C@H](C(=O)N[C@@H](C)C(=O)N[C@@H](C)C(=O)N[C@@H](CO)C(=O)N[C@@H](CS)C(=O)N[C@@H](Cc1ccccc1)C(=O)N[C@@H](CCC(N)=O)C(=O)N[C@@H](CCCNC(=N)N)C(=O)O)[C@@H](C)O)C(C)C [BCC01-5RMP] (H-[AEEA][AEEA]RRRRNQGRHFCGGALIHARFVMTAASCFQR-OH; N-terminus and C-terminus assumed) here?
Answer: strong, but lesser activity

Question: What about the “release of TNF-α in response to Pseudomonas LPS” value (RAW264.7 cells) of the same molecule?
Answer: attenuate the release of TNF-α

Question: And the “binding of Pseudomonas LPS (LAL)” value (Pseudomonas LPS)?
Answer: bound Pseudomonas LPS

Question: And the “activity against Acinetobacter baumannii” value [1]?
Answer: most active

B1: CAP37: cationic antimicrobial protein of Mr 37 kDa; recombinant CAP37 produced in human embryonic kidney (HEK) 293 cells (protein)
chain: IVGGRKARPRQFPFLASIQNQGRHFCGGALIHARFVMTAASCFQSQNPGVSTVVLGAYDLRRRERQSRQTFSISSMSENGYDPQQNLNDLMLLQLDREANLTSSVTILPLPLQNATVEAGTRCQVAGWGSQRSGGRLSRFPRFVNVTVTPEDQCRPNNVCTGVLTRRGGICNGDGGTPLVCEGLAHGVASFSLGPCGRGPDFFTRVALFRDWIDGVLNNPGP
Question: Which “re-epithelialization at 24 hours versus vehicle (H&E histology)” value ([2]; 250 ng/ml) does the source give for B1 here?
Answer: greatly accelerated

Question: And the “wound closure at 16 hours” value [2, 4]?
Answer: 71%

Question: And the “wound closure at 24 hours” value [2, 4]?
Answer: 83%

Question: What about the “percentage wound closure in vitro” value (HCEC monolayers; 250 ng/ml, at 18 hours) of the same molecule?
Answer: ~71%

Question: What about the “percentage wound closure in vitro” value (HCEC monolayers; 500 ng/ml) of the same molecule?
Answer: approximately 62%

Question: And the “HCEC migration versus buffer control” value [3]?
Answer: significant increase in migration

B2: HB-EGF: heparin binding-epidermal growth factor, used as the positive control (protein, UniProt Q99075 63-148, looked up)
Heparin-binding EGF-like …: DLQEADLDLLRVTLSSKPQALATPNKEEHGKRKKKGKGLGKKRDPCLRKYKDFCIHGECKYVKELRAPSCICHPGYHGERCHGLSL
Question: What does the source list for B2?
Answer: corneal wound healing versus vehicle ([2]; treated at 0 and 16 hours, 95-122 10^−5 M, 120-146WH 10^−8 M or 10^−6 M, HB-EGF 250 ng/ml): significantly higher; time to complete closure of scratched monolayers (HCEC monolayers; 250 ng/ml): ≤ 24 h; percentage wound closure in vitro (HCEC monolayers; 250 ng/ml, at 18 hours): ~88%; HCEC migration versus buffer control [3]: significant increase in migration
